# B1: Triggering receptor expressed on myeloid cells 2 (Homo sapiens), Q9NZC2 (parent)
# chain: MEPLRLLILLFVTELSGAHNTTVFQGVAGQSLQVSCPYDSMKHWGRRKAWCRQLGEKGPCQRVVSTHNLWLLSFLRRWNGSTAITDDTLGGTLTITLRNLQPHDAGLYQCQSLHGSEADTLRKVLVEVLADPLDHRDAGDLWFPGESESFEDAHVEHSISRSLLEGEIPFPPTSILLLLACIFLIKILAASALWAAAWHGQKPGTHPPSELDCGHDPGYQLQTLPGLRDT
# Variants of: B1
# Conditions: with psn1_human PSEN1, P49768
row,Variant,effect of a mutation on the interaction
1,MEPLRLLILLFVTELSGAHNTTVFQGVAGQSLQVSCPYDSMKHWGRRKAWCRQLGEKGPCQRVVSMHNLWLLSFLRRWNGSTAITDDTLGGTLTITLRNLQPHDAGLYQCQSLHGSEADTLRKVLVEVLADPLDHRDAGDLWFPGESESFEDAHVEHSISRSLLEGEIPFPPTSILLLLACIFLIKILAASALWAAAWHGQKPGTHPPSELDCGHDPGYQLQTLPGLRDT [T66M],with no effect
2,MEPLRLLILLFVTELSGAHNTTVFQGVAGQSLQVSCPYDSMKHWGRRKAWCRQLGEKGPCQRVVSTHNLWLLSFLRRWNGSTAITDDTLGGTLTIKLRNLQPHDAGLYQCQSLHGSEADTLRKVLVEVLADPLDHRDAGDLWFPGESESFEDAHVEHSISRSLLEGEIPFPPTSILLLLACIFLIKILAASALWAAAWHGQKPGTHPPSELDCGHDPGYQLQTLPGLRDT [T96K],with no effect
3,MEPLRLLILLFVTELSGAHNTTVFQGVAGQSLQVSCPYDSMKHWGRHKAWCRQLGEKGPCQRVVSTHNLWLLSFLRRWNGSTAITDDTLGGTLTITLRNLQPHDAGLYQCQSLHGSEADTLRKVLVEVLADPLDHRDAGDLWFPGESESFEDAHVEHSISRSLLEGEIPFPPTSILLLLACIFLIKILAASALWAAAWHGQKPGTHPPSELDCGHDPGYQLQTLPGLRDT [R47H],with no effect
